# Reference: patent US20030162168A1
# Biological target: chimera H (HCV NS3 to NS5B-P6' fused to tTA, NS3 active site mutant S1165A, unmodified NS5A/5B junction) (Hepatitis C virus 1b (human serum isolate))
# Experiment: cell-based or functional assay
substance,measurement,value
"chimera I (HCV NS3 to NS5B-P6' fused to tTA, NS5A/5B cleavage site P1-P1' mutated to R-P; source of active NS3 protease)","luciferase activity, triple transfection of chimera H, I and the pUHC13-3 reporter into 293 cells",2e+06 cps
